This is an account of results in article PMC12866179, “Oxidized MIF is an Alzheimer’s disease drug target relaying external risk factors to tau pathology” (Cell Reports Medicine, 2025).

For this test, the target named is T1, recombinant human wild-type macrophage migration inhibitory factor (MIF) (human), P14174.
T1 chain: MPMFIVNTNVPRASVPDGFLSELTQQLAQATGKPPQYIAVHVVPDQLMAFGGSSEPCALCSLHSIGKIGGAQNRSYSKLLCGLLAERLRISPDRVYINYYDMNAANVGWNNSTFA
Briefly: SEC-MALS; 100 uM MIF (WT or C80W) in 20 mM phosphate buffer, with or without 100 uM PAV-174; TSKgel G2000SWXL, 0.5 mL/min, 25 C; UV 280 nm and miniDawn Treos light scattering. Conditions: remark: other sources report otherwise. A general note: In gel filtration, larger molecules generally elute earlier.

B1: recombinant human wild-type macrophage migration inhibitory factor (MIF), P14174 1-115 (natural protein)
chain: MPMFIVNTNVPRASVPDGFLSELTQQLAQATGKPPQYIAVHVVPDQLMAFGGSSEPCALCSLHSIGKIGGAQNRSYSKLLCGLLAERLRISPDRVYINYYDMNAANVGWNNSTFA
What is called stoichiometry N is the number of molecules, sites or subunits per partner or assembly. As for B1, the stoichiometry N was 3.
